Assay results reported in FireProtDB (doi:10.1016/0022-2836(81)90253-9).

Conditions: Sus scrofa, Thermal, DSC, reversible: yes, whole UniProt chain shown
[1] = pH 6.5, sodium phosphate 5 mM, NaCl 100 mM
[2] = pH 7.1, sodium phosphate 5 mM, NaCl 100 mM

B1: Gastricsin wild type, P30879 (protein)
chain: SVIKVPLKKLKSIRQAMKEKGLLEEFLKTHKYDPAQRYRIGDISVALEPMAYLEAAYFGEISIGTPPQNFLVL
Tm (pH 6, sodium cacodylate 5 mM): 66 °C
unfolding enthalpy (calorimetric) (pH 6, sodium cacodylate 5 mM): 271 kcal/mol
unfolding enthalpy (van 't Hoff) (pH 6, sodium cacodylate 5 mM): 174 kcal/mol
Tm [1]: 64.5 °C
unfolding enthalpy (calorimetric) [1]: 256 kcal/mol
unfolding enthalpy (van 't Hoff) [1]: 131 kcal/mol
Tm (pH 6.5, sodium phosphate 5 mM): 61 °C
unfolding enthalpy (calorimetric) (pH 6.5, sodium phosphate 5 mM): 240 kcal/mol
unfolding enthalpy (van 't Hoff) (pH 6.5, sodium phosphate 5 mM): 125 kcal/mol
Tm [2]: 56.3 °C
unfolding enthalpy (calorimetric) [2]: 202 kcal/mol
unfolding enthalpy (van 't Hoff) [2]: 143 kcal/mol
